Measured values: PMC4569402
“And” between values parts separate entries of the source, which are not always exact repeats. Equal entries are not always repeated.

Legend:
[1] = target: BNP with deletion of aa 1-66 (BNP-Δ66) (influenza B virus (B/panama/45/1990)); experiment: negative-stain electron microscopy
[2] = target: BNP with deletion of aa 1-38 (BNP-Δ38) (influenza B virus (B/panama/45/1990)); experiment: negative-stain electron microscopy

| Substance | stoichiometry N [1] | stoichiometry N [2] |
| --- | --- | --- |
| BNP with deletion of aa 1-66 (BNP-Δ66) (domain or fragment) | 4 and 5 |  |
| BNP with deletion of aa 1-38 (BNP-Δ38) (domain or fragment) |  | 4 and 5 |
